Assay results: the supplement of paper PMC12042874
± gives the uncertainty stated by the source.

Assay: amyloid nucleation score (Sup35N fusion, yeast selection) (log enrichment); library NNK1; higher = more nucleation; inactive = no reads after selection
Outline: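 Plasmid inserts were Illumina-sequenced at input and output from psi-negative yeast expressing Sup35N fused to peptides of 20 random codons. The yeast were induced with 100 μM copper sulfate for 24 hours and grown 7 days at 30°C on medium lacking adenine and uracil, and sequences with under 100 input reads were excluded. Nucleation score is the DiMSum log enrichment of output over input reads, centred on the mode score of non-aggregating sequences.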

Substance	amyloid nucleation score
TSNSS	-1.07 ± 0.52
GDSRTLGLLCFYMKVG	-0.352 ± 0.41
FKRFWLR	0.166 ± 0.73
KKAIPACHVVSFTMRLSFLD	0.225 ± 0.63
YVMSS	-0.369 ± 0.41
SSRCY	0.104 ± 0.85
TSMLDLN	-1.69 ± 1.8
RGSVIWRRRWTTESWSSYFG	1.25 ± 0.72
VMVFGSMPVDDLLHFWLECY	-0.102 ± 0.42
HAFKPSAAPQWRTYPRFRSG	inactive
LSMGRYRPKRFLLRNTSDTL	-0.438 ± 0.44
CLFLDWMPM	0.548 ± 0.84
IYSNKRTNMLMCMYNSVRGH	0.243 ± 0.35
GCMVFS	0.352 ± 0.76
DVRGRHRCRFGSQQTKRQS	0.586 ± 0.8
LCVFVKAGVCWGRTVIRKSG	inactive
MPEILSVRSF	-0.943 ± 0.32
RLSSSCSSAEDWYRKGHLLK	-0.063 ± 0.4
YQLTQLGLLS	0.025 ± 0.49
FRSPN	-0.285 ± 0.58
FISSNDIYGGATGWDSSDVT	-0.743 ± 0.36
PDSARSECAGRVNLFVFRAR	0.559 ± 0.32
FCQLVIFY	2.8 ± 0.18
GLDIFIWYMMVGIVYAFIYV	2.38 ± 0.53
FIRWKLVYYDIMKCPSCSHH	-0.187 ± 0.61

Substance	amyloid nucleation score
EPKVSSEQKVFDSCYT	0.417 ± 0.61
LGRKKGFMTYSGLYYVRLWA	-0.81 ± 1.4
MYVPQSINSYTQWEPKHIRW	1.64 ± 0.43
GHVWEQGRQLGSAPKDR	0.1 ± 0.71
FAHTLGA	0.333 ± 0.79
MNFDCFPNSL	1.22 ± 0.35
IISVMTIARGNPVCTHIKYG	0.169 ± 0.29
HRIITCPFTSWNH	0.816 ± 0.54
IGFFPQDSYGFGLRTEINGL	0.145 ± 0.69
KRWTKNFDCFQTVMHIYCSQ	inactive
HVFVLLPSKFADLLKKPVLL	-0.894 ± 1.7
STAAVHCRMRTRFQLRRLRD	-0.086 ± 0.35
YNIVPSADWVSWHGRLTGRR	1.42 ± 0.61
DGFCCGIYYILSEMTGHSRS	1.41 ± 0.65
FSRPWWRSWHSFFSHDEKTI	0.282 ± 0.69
DVDGEVRVLDFV	-0.24 ± 0.45
SSRNRV	-1.07 ± 0.59
WFYKLSSLFYNPLCL	-1.13 ± 0.41
LSHTTVRIDMGAAWRSLYSM	2.36 ± 0.13
SKKSMYFLVRNWSQNLTRAG	2.21 ± 0.63
EFIFFCFVLCYANVMLLWN	0.601 ± 0.42
FSVNP	1.22 ± 0.69
DYESKSNFPYTQVNAITW	-1.05 ± 1.2
REVSVVNLYRCFDGIRSKLT	0.219 ± 0.23
YSCCRVFMCARWLRVTCNMS	0.189 ± 0.31

Substance	amyloid nucleation score
LGVMMFRCVL	3.79 ± 0.16
KSITWSKGDFARSTLLVNIC	0.397 ± 0.43
YRVNWFYMQRCAIP	-0.269 ± 0.86
FWYFMLNMVQPRY	-0.198 ± 0.87
RWLETVGECCCESARVFCA	-0.45 ± 0.59
NACRCVYSGRVSAYDVRVRN	0 ± 0.6
VESDKCQLGTLSIMYICFFL	inactive
FERRCYRVSDHVAQVLHDPT	0.515 ± 0.97
WVCFIFIIFETVS	-0.207 ± 0.47
GYTTLTQGL	-0.513 ± 1.2
IWLCVYNGM	4.98 ± 0.12
SRNRLFVRRVRLANSLSFNA	-0.226 ± 1.1
IDWTVDKRSKLMYRGKGSVA	-0.306 ± 0.97
TVMHSAMIYILVPVSGSGQV	5 ± 0.064
CYTHPVMSITLNSI	2.36 ± 0.15
VMNENI	inactive
YTHGG	inactive
EVMVSAGVTIACSPVVIRFR	1.47 ± 0.54
LSQAASNLLSRNLVPLSWLV	inactive
DGLKWVDWPWGHYGEMMVEM	1.01 ± 0.55
MVSIWINFT	6.38 ± 0.08
VVGSVLRGSYTCLG	-0.972 ± 0.82
SMLALGFPSVNCQWTGATFS	1.22 ± 0.97
SDDHVTVYNRDARRSRSCCL	inactive
AIYMLHRNGGGGVCEAEAVR	-0.38 ± 0.69

Substance	amyloid nucleation score
VTLAQKLLDF	-0.421 ± 1.1
NVLVQGFG	-0.017 ± 0.66
TRNVSVTAVMED	0.938 ± 0.81
KSERERRVLMQRSDECVKSF	-0.297 ± 0.5
HLKRRLKFDSGTSYQLVQKV	0.177 ± 1
FLSSCSMFMGRPWFSCYRVR	-1.02 ± 2.4
VLGKLEWCNLSSVTRAPCFM	0.14 ± 0.71
FSSEVRVWVWNCCFNRFSCI	4.74 ± 0.061
IYFTSTMKLRQDILADNEHC	1.08 ± 0.54
MRNVTFTGLMLDSDWNVH	-0.338 ± 1.1
TLCREEVETRLEATFCGCTN	0.979 ± 0.84
KACWTFNFCKSMVVKEHDPI	2.56 ± 0.19
TSAASLVERNLFLVSFFIIW	-0.376 ± 1.7
TYRKYLRVRTLDERHGSVYE	0.147 ± 0.35
YSAITNGSFQVLV	0.17 ± 0.21
AYWGHITGKVKFMEAAPLDV	1.63 ± 0.73
GVDKEINLFMYRPYRFVSGE	1.1 ± 0.24
AIVELLSWSQVTCALWGSIT	0.344 ± 0.69
VVVGDSPNGNEEDDWSSC	-2.03 ± 2.7
WNPIAIYEGDGMQDAFCADL	-0.033 ± 0.38
TCSSLRSLLWSCVVRALLWT	-0.528 ± 1.2
SQSRRVSGQQDGPQMYSNGP	-0.232 ± 0.36
GGGVMASDKPCTRVSLINKM	0.161 ± 0.7
YRFSGEGALLASKWLINNCT	-0.224 ± 0.4
WVWSLRLLGFNNLMDKATGF	-0.312 ± 0.24

Substance	amyloid nucleation score
GSWIFCVFHLNMDFCSMGST	-0.023 ± 0.6
CLVVVISS	-0.369 ± 0.57
YWWRWSVSI	0.386 ± 0.33
FYWMMANRNTQCVVCFAVLR	-0.754 ± 0.54
PFYSETDDSRYIDVRRVFCF	inactive
MVSHKDQRIGPLLASVAHVR	-1.69 ± 1.3
CCVGWCFPACLLFST	7.42 ± 0.079
HWTMYLVQLDSDSAIFFGHM	2.52 ± 0.15
FIASGPVHLRLYAKFNNFHL	8.643 ± 0.06
QCMSMSYPFMPRTHQRTVLK	-0.179 ± 0.31
YLVSTSRWGYLVLTLMWKEG	inactive
LYGPQSPGRSPVSTFGRGRF	0.321 ± 0.4
EMAFSSINPRGHSIQGSASG	-0.282 ± 1.2
ADANCFRGWSRHHRTITQLR	0.296 ± 0.64
ALFESRPYTLSRERDKL	-0.302 ± 0.36
YLPYVSLQSVHWIMVGWLN	-0.163 ± 0.8
CYSGCYRLCRVIVASCRCRG	0.015 ± 0.71
ITVDAMIKSVYFITDSYRHF	0.911 ± 0.26
LVSQLSFACN	0.92 ± 0.83
KHWSCRYWEEFGGMDHNLDW	1.1 ± 0.38
HHFAYWCIVWPE	0.728 ± 0.54
YRGYDKREYCSHFFTWDTYG	0.821 ± 0.72
VDRCGFGVFATVGMSCMDSF	0.918 ± 0.45
DSSVLRMQRVDRTRAFTYHW	-0.68 ± 0.56
KGCAIGRRAINSCYQSGWIW	1.6 ± 0.57

Substance	amyloid nucleation score
GMLRVYWSMSSVFSGMCDRC	3.94 ± 0.1
CPVGQTNCQDL	0.072 ± 0.51
YGSSLAAWVRLCVLTGDSRQ	1.46 ± 0.38
STFSLTSRASHKVPQDRYFP	0.353 ± 0.61
FGKFKRRRGMSKMNRMEITK	-0.841 ± 1.5
MCRLTPRIITDY	0.244 ± 0.28
SHAFRITS	0.619 ± 0.85
TLMNHGRESLGWFD	-0.828 ± 0.66
GSMWGGFPVG	1.07 ± 0.85
MVMNTKCE	-0.643 ± 0.55
NWHVGIIGWRCMGHTQKYVN	0.038 ± 0.22
NLRQVCNSAFVVGSVIFFWV	-0.318 ± 0.69
MPPMYGRGRPMNKIGVWDYA	1.14 ± 0.51
CPNIEKPSLLST	-2.01 ± 2.4
VKCYLDLINFRYLLDLGDEA	0.066 ± 0.2
FYFTHRFRITVRYSVLVMRT	1.69 ± 0.51
DMFVGKTRMRRGSVMLYFMG	0.829 ± 0.52
HTEEGKSWFMRGSSVWFRVG	0.341 ± 0.18
LFHCRSIDRNLYYRHAFLIY	0.466 ± 0.39
HLGAYYTGI	0.984 ± 0.36
FVETS	0.198 ± 0.29
TFCCIVSFF	7.199 ± 0.049
GFGSELRYYYMSRGMYRIRP	0.089 ± 0.88
GLWYHA	0.025 ± 0.62
IFNCVVLFSNTFMGYRFPFH	6.273 ± 0.045

Substance	amyloid nucleation score
DTVSMLHQLVCW	7.245 ± 0.053
SYSCSVSRKEFSIGVGEHEG	-0.44 ± 0.5
THFMYIVELERGRLFGCSVR	0.115 ± 1
CSWVTPNGRVLHCLTNLYYY	0.297 ± 0.59
ERVSETRQSLTWNHNERIWL	1.55 ± 0.12
MDCWENVIRQKASSSGWLEN	-0.725 ± 0.52
YYAHSGMWYAMSDQKGAVG	0.552 ± 0.67
IFHGRNYSFSS	-0.422 ± 0.45
LSKYGVCVALLCIWMGHNWC	0.22 ± 0.2
IKYINDITFLVLPYWFI	3.6 ± 0.072
LLWTKFGYCYRIEWSAVWFF	-0.527 ± 0.52
RWGATRFVVTS	0.304 ± 1.2
MKRTFRTLF	0.57 ± 0.41
INHLKGVSRYSVPVLLGFIA	0.124 ± 0.45
MNIVIHIPNMRMAAKD	7.17 ± 0.08
IWMGCYVNVARSK	1.03 ± 0.22
GSLWFRLGEFARTNFFNSVF	0.05 ± 0.26
ILLYVICQVVTTV	1.64 ± 0.34
STVGPMWVWTTTLAKNAIPK	0.833 ± 0.57
NCGVYIVYQKRLQAVGYCAN	-0.312 ± 0.3
CLCSYYKILVYSSLVLDNAY	0.58 ± 0.45
GDKCLVTYCYLLGDGEGQQS	-0.05 ± 0.43
